Tests used:
[1] = biological target: T1, full length cell-expressed CD9 (human, UniProt P21926 2-228); assay: selection on cells expressing CD9; method not described
T1 construct: also called human CD9
T1 sequence: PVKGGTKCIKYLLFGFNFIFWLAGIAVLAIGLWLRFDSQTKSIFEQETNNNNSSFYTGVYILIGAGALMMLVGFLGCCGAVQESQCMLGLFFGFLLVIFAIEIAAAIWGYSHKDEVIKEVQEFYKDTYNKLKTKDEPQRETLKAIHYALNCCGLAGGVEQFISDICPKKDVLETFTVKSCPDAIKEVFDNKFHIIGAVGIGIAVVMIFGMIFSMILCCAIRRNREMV

[2] = biological target: T2, recombinant human CD9 long extracellular loop 2-human Fc fusion protein (10015-CD, R&D Systems) (human, UniProt P21926 112-195); assay: BLI (Octet RED384), CD9 loop 2-Fc on AHC biosensors, Fab-Y 10 µg/mL
T2 construct: Bought reagent; the order here follows the printed name; also called CD9-loop2; long extracellular loop 2 peptide; not shown: human Fc
T2 sequence: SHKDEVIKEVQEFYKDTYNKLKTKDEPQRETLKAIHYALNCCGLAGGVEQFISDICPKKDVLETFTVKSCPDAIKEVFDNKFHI
Excerpt: CD9 contains two extracellular loops: a short extracellular loop (loop 1: 34-55 in SEQ ID NO:2) and a long extracellular loop (loop 2: 112-195 in SEQ ID NO:2). We used biolayer interferometry to assess binding of our panel of CD9 Fab-Y antibodies (selected for binding to full length cell-expressed CD9) to the long extracellular loop 2 peptide using the Octet® RED384 System (FortéBio) with Anti-hlgG Fc Capture (AHC) Biosensors (FortéBio) at room temperature. Firstly, an array of 8 sensors was dipped in kinetics buffer (PBS 0.1%, BSA 0.02%, Tween 20) for 120 seconds to provide a baseline signal. Sensors were then moved to wells containing 200 μl of recombinant human CD9 long extracellular loop 2-human Fc fusion protein (10015-CD, R&D Systems®) at 2 μg/mL in kinetics buffer to immobilize the protein to the biosensor (100 seconds), followed by a second baseline step (180 seconds) in kinetics buffer to equilibrate the biosensors now coated with the CD9 long extracellular loop 2-human Fc fusion protein. No detachment of the peptide was observed during this step. Sensors were then dipped in wells containing one of the anti-CD9 Fab (10 μg/mL) to evaluate association of each antibody to CD9-loop2 (120 seconds), followed by dissociation in kinetics buffer (600 seconds). Anti-CD137 Fab-Y (11175) was used as negative control during the antibody association step. […]

binding result [1]: binds | binding result [2]: binds
B1: anti-CD9 Fab-Y 7272 (Fab, V domains shown)
VH: QSLEESGGRLVTPGTPLTLTCTVSGFSLSSYAMGWVRQAPGKGLEWIGAIGSITATGYARWAKGRFSISKTSTTVDLKMTSPTTEDTATYFCAREIYVGSAYAFDIWGPGTLVTVSS
VL: AYDMTQTPASVEVAVGDTVTIKCQASQSISNYLAWYQQKPGQPPKLLIYLASTLASGVPSRFKGSGSGTEFTLTISDLECADAATYYCQQGYIDNVNKGFGGGTEVVVK
notes: Tested as Fab-Y: Fab with the GCN4 peptide (clone 7P14P) attached by a peptide linker to CH1; also called VR7272
